Source: patent US20240132563A1 (BRIGHT PEAK THERAPEUTICS, published 2024)
Positions of bridges follow the written chain, without caps; N, C: chain ends. Non-standard residues stand in square brackets, D forms with d. Chains are numbered I, II in the order given. Ygp = tyrosine with amino-capped PEG8; Yn3 = tyrosine with azide-capped PEG9; hSer = N[C@@H](CCO)C(=O)O; Nle = CCCC[C@H](N)C(=O)O

T1: CD218a (IL-18 receptor alpha subunit), avi-tagged (UniProt Q13478 19-329, limits assumed)
T1 construct: BLI ligand printed as 'CD218a (avi)'; also called CD218a (avi); IL-18Rα
T1 sequence (looked up): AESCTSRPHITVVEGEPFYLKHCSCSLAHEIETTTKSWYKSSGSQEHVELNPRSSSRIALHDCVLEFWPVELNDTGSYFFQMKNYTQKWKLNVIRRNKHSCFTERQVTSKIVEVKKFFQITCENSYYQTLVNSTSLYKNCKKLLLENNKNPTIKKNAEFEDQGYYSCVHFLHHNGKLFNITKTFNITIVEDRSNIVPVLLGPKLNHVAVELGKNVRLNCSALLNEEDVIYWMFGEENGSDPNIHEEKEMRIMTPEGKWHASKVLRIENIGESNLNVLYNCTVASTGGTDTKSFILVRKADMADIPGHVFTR

T2: IL-18R on HEK-Blue IL18R reporter cells (UniProt Q13478 19-541; O95256 20-599, limits assumed)
T2 sequence (looked up) 1: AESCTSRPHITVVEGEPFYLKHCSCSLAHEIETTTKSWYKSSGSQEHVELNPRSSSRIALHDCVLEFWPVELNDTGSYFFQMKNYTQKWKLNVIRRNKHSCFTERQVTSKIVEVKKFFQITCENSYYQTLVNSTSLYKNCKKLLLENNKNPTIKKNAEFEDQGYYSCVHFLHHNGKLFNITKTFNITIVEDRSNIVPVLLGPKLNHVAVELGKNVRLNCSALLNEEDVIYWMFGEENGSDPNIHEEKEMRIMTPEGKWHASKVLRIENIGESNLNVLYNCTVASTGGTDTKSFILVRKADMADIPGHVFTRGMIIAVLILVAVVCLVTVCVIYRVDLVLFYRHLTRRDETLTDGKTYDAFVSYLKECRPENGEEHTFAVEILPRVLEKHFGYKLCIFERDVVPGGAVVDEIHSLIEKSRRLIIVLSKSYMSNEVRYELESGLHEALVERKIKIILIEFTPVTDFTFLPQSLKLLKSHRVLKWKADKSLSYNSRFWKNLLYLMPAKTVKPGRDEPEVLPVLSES
T2 sequence (looked up) 2: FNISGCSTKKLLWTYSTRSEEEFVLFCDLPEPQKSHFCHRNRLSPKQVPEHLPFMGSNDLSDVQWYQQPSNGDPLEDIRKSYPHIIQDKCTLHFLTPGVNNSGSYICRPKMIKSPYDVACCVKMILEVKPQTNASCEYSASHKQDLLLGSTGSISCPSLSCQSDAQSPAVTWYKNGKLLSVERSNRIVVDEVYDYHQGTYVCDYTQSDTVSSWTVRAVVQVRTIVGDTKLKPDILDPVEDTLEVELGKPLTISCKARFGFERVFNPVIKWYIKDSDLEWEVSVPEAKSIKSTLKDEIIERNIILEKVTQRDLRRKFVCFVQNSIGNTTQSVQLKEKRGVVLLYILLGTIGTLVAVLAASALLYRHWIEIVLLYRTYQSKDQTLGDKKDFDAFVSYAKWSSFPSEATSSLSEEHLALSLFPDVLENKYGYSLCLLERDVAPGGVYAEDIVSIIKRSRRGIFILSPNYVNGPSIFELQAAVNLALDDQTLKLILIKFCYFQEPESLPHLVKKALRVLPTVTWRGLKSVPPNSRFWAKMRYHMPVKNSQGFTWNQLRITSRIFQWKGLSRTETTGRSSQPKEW

T3: IL-2Rβγ on HEK-Blue IL2Rβγ reporter cells (UniProt P14784 27-551; P31785 23-369)
T3 sequence (looked up) 1: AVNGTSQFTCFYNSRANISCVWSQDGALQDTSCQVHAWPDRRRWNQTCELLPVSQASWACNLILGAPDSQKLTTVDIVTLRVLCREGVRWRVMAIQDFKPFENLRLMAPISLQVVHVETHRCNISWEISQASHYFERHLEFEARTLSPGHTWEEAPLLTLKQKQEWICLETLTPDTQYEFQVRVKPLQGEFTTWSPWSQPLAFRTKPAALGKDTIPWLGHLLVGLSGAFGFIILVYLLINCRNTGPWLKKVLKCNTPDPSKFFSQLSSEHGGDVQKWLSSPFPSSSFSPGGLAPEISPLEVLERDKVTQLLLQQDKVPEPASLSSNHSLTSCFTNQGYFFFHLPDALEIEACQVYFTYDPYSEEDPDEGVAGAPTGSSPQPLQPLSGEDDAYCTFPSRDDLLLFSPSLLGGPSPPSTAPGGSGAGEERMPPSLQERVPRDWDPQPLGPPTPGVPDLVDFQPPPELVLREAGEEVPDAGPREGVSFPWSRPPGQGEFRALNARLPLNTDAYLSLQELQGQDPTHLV
T3 sequence (looked up) 2: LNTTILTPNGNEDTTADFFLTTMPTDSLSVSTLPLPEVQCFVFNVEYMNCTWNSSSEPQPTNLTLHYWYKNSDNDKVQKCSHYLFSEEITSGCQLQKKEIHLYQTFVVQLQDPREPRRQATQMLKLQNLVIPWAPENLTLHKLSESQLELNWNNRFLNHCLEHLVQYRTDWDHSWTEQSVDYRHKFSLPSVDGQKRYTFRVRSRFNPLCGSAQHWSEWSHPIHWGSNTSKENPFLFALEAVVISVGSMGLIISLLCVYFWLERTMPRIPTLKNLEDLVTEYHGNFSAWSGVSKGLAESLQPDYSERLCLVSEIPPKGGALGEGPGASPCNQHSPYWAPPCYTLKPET

T4: IL-2Rβ (CD122), avi-tagged (UniProt P14784 27-239, limits assumed)
T4 construct: BLI ligand printed as 'CD122 (avi)'; also called IL-2 receptor beta subunit
T4 sequence (looked up): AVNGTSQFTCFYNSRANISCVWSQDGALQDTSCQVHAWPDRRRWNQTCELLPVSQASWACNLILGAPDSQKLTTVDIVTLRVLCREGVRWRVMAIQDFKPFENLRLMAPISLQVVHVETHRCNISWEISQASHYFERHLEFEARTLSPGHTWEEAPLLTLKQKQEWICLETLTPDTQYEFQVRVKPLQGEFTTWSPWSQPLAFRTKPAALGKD


Key:
[1] = molecular target: T1, CD218a (IL-18 receptor alpha subunit), …; test: BLI; ligand CD218a (avi)
[2] = molecular target: T2, IL-18R on HEK-Blue IL18R reporter cells; test: cell-based or functional assay
[3] = molecular target: T3, IL-2Rβγ on HEK-Blue IL2Rβγ reporter …; test: cell-based or functional assay
[4] = molecular target: T4, IL-2Rβ (CD122), avi-tagged; test: BLI; ligand CD122 (avi)

Binder	Kd [1] [nM]	koff [1] [s⁻¹]	kon [1] [M⁻¹ s⁻¹]	EC50, HEK-Blue IL18R reporter assay [2] [pM]	EC50, HEK-Blue IL2Rβγ reporter assay [3] [nM]	Kd [4] [nM]	koff [4] [s⁻¹]	kon [4] [M⁻¹ s⁻¹]
IL-2 polypeptide of SEQ ID NO: 300 (ligand, ends and bridges not checked, Synthetic modified IL-2) APTSSSTKKTQLQLEHLLLDLQ[Nle]ILNGINNYKNPKLTR[Nle]L[hSer][Yn3]KF[Ygp][Nle]PKKATELKHLQCLEEELKPLEEVL[hSer]LAQSKNFHLRPRDLISNINVIVLELKGSETTF[hSer]CEYADETATIVEFLNRWITFSQSIISTLT	–	–	–	–	0.004	206	0.102	493000
Bifunctional cytokine Composition 4 (IL-18 SEQ ID NO: 30, linker 004, IL-2 SEQ ID NO: 300) (other, linker I:68-II:42 via linker 004 (SulfoDBCO-Maleimide) (inferred); ends not checked, Two cytokines joined by a chemical (non-peptide) linker) chain 1: YFGKLKSKLSIIRNLNDQVLFIDQGNRPLFEDMTDSDARDNAPRTIFIISMYADSQPRGMAVAISVKCEKISTLSAENKIISFKEMNPPDNIKDTKSDIIFFQRSVPGHDNKMQFESSSYEGYFLAAEKERDLFKLILKKEDELGDRSIMFTVQNED chain 2: APTSSSTKKTQLQLEHLLLDLQ[Nle]ILNGINNYKNPKLTR[Nle]L[hSer][Yn3]KF[Ygp][Nle]PKKATELKHLQCLEEELKPLEEVL[hSer]LAQSKNFHLRPRDLISNINVIVLELKGSETTF[hSer]CEYADETATIVEFLNRWITFSQSIISTLT	66.4	0.0708	1.07e+06	1.48	0.05	148	0.0863	585000

Results, then the binder that gave them:

Kd [1] [nM]	koff [1] [s⁻¹]	kon [1] [M⁻¹ s⁻¹]	EC50, HEK-Blue IL18R reporter assay [2] [pM]	EC50, HEK-Blue IL2Rβγ reporter assay [3] [nM]	Kd [4] [nM]	koff [4] [s⁻¹]	kon [4] [M⁻¹ s⁻¹]	Binder
26.1	0.0567	2.17e+06	0.067	–	–	–	–	IL-18 polypeptide of SEQ ID NO: 30 (E6K, V11I, C38A, K53A, T63A, C76A, C127A) (ligand, also called C086) YFGKLKSKLSIIRNLNDQVLFIDQGNRPLFEDMTDSDARDNAPRTIFIISMYADSQPRGMAVAISVKCEKISTLSAENKIISFKEMNPPDNIKDTKSDIIFFQRSVPGHDNKMQFESSSYEGYFLAAEKERDLFKLILKKEDELGDRSIMFTVQNED
25	0.0405	1.62e+06	0.1	0.007	151	0.0842	559000	Bifunctional cytokine Composition 3 (IL-18 SEQ ID NO: 30, linker 006, IL-2 SEQ ID NO: 300) (other, linker I:68-II:42 via linker 006 (SulfoDBCO-PEG24-Maleimide) (inferred); ends not checked, Two cytokines joined by a chemical (non-peptide) linker) chain 1: YFGKLKSKLSIIRNLNDQVLFIDQGNRPLFEDMTDSDARDNAPRTIFIISMYADSQPRGMAVAISVKCEKISTLSAENKIISFKEMNPPDNIKDTKSDIIFFQRSVPGHDNKMQFESSSYEGYFLAAEKERDLFKLILKKEDELGDRSIMFTVQNED chain 2: APTSSSTKKTQLQLEHLLLDLQ[Nle]ILNGINNYKNPKLTR[Nle]L[hSer][Yn3]KF[Ygp][Nle]PKKATELKHLQCLEEELKPLEEVL[hSer]LAQSKNFHLRPRDLISNINVIVLELKGSETTF[hSer]CEYADETATIVEFLNRWITFSQSIISTLT
